According to PMC2763920:
Square brackets hold non-standard residues; d marks the D form. Ends that are not written are not given here. pY = N[C@@H](Cc1ccc(OP(=O)(O)O)cc1)C(=O)O

Columns and labels:
[1] = target: Fyn-SH3-SH2 (GST tag cleaved with thrombin); test: high-speed capillary electrophoresis
[2] = target: Fyn-SH3-SH2 (GST tag cleaved with thrombin); test: fluorescence polarisation
[3] = target: Fyn-SH3-SH2 (GST tag cleaved with thrombin); test: NECEEM

B1: Fluor-Fyn peptide (fluorescein-EEEEPQpYEEIPIYL) (peptide)
peptide: fluorescein-EEEEPQ[pY]EEIPIYL
B1 showed a t1/2 of the complex [1] of 48.4 s, a t1/2 of the complex [2] of 53.5 s and a t1/2 of the complex [3] of 101 s.
